Results as given in US20020004209A1, “Use of SLIM3 for binding to molecules” (Schering Aktiengesellschaft Patents, priority 1999, published 2002).

Key:
[1] = biological target: co-activator TIF2 (Homo sapiens, UniProt Q15596); test: GST-protein-interaction test; type: binding; details: in vitro
Experimental: (§1) To measure the interaction between SLIM3 and the nuclear receptors in vitro, the GST-Slim3 fusion protein was immobilized by means of glutathione-sepharose and incubated with several in vitro-translated ^35S-methionine-labeled nuclear receptors. The complete human androgen receptor binds to GST-Slim3. This in vitro interaction is not ligand-dependent under standard conditions. The complete human androgen receptor binds specifically to GST-Slim3, but not to the GST protein alone. To safeguard the specificity between the human androgen receptor and SLIM3, another GST-protein-interaction test was carried out (GST-protein-interaction assay). This test is described in E. PFITZNER et al. (1995) Functional Antagonism Between the Retinoid Acid Receptor and the Viral Transactivator BZLF1 is Mediated by Protein-Protein Interactions. Proc Natl Acad Sci USA Vol. 92, pp. 12265-12269.

[2] = biological target: T1, glucocorticoid receptors (Homo sapiens, UniProt P04150); test: GST-protein-interaction test; type: binding; details: in vitro
T1 construct: made in house; host or cells: in vitro translation, 35S-methionine labelled
T1 sequence (P04150 1-777): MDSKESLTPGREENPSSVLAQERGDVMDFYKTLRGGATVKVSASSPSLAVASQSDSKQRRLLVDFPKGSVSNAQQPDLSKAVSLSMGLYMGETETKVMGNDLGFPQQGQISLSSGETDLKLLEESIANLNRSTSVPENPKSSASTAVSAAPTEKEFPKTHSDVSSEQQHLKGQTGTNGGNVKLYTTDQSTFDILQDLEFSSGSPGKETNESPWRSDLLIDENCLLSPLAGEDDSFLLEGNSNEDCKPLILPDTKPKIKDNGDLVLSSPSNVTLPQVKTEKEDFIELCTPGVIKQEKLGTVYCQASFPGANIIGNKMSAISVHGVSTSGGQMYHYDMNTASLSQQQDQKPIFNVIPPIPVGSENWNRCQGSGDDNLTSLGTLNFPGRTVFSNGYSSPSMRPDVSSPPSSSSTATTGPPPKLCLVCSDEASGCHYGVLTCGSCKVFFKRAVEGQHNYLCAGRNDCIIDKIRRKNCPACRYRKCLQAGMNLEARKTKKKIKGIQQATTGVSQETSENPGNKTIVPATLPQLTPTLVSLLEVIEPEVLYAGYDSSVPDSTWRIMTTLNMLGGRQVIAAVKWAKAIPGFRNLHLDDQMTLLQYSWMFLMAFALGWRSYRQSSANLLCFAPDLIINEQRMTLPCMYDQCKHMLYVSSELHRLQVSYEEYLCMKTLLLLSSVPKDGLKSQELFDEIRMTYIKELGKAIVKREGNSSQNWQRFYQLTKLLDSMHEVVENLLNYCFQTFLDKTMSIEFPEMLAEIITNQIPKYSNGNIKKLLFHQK
Experimental: as §1

[3] = biological target: T2, co-activator RIP140 (Homo sapiens, UniProt P48552); test: GST-protein-interaction test; type: binding; details: in vitro
T2 sequence (P48552 1-1158): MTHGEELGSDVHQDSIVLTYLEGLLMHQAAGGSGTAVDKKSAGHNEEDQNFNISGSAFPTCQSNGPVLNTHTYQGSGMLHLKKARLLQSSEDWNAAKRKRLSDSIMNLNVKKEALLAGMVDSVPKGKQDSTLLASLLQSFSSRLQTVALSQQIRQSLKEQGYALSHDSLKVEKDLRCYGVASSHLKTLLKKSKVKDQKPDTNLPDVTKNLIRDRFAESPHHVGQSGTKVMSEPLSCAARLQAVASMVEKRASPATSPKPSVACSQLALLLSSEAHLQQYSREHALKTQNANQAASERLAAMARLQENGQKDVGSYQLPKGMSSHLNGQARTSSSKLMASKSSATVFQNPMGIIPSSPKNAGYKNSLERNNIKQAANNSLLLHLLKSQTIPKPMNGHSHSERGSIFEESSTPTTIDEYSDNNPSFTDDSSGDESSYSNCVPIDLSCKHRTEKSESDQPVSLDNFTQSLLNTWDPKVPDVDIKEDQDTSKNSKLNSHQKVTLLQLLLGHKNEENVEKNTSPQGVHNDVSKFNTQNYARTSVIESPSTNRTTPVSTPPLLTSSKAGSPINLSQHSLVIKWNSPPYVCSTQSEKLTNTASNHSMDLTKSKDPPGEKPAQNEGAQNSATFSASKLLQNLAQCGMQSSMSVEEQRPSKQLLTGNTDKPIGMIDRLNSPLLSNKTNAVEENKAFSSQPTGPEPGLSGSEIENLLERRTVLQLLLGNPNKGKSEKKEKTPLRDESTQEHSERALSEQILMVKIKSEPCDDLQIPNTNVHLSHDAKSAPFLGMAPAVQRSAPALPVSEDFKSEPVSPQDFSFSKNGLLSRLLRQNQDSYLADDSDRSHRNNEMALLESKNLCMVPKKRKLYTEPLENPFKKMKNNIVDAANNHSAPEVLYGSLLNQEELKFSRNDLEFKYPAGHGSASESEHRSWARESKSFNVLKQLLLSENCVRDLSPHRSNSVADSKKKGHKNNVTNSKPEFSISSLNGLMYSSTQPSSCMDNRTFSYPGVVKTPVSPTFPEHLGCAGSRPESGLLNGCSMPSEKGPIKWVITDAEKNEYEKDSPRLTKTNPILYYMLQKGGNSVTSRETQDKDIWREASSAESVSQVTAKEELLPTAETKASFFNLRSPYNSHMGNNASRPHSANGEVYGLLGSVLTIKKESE
T2 sequence (Q14192 1-279 partner): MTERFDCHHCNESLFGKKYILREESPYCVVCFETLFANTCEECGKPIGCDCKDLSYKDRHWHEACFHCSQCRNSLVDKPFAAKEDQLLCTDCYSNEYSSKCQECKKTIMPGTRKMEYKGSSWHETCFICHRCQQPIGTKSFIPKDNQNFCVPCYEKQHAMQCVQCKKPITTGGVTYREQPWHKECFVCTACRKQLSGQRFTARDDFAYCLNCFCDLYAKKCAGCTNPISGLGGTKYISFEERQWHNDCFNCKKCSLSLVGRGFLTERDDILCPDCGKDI

[4] = biological target: co-activator AIB/ACTR (Homo sapiens, UniProt Q9Y6Q9); test: GST-protein-interaction test; type: binding; details: in vitro
[5] = system: DNA; test: DNA binding

Chain of co-activator TIF2 (Q15596 whole entry, one chain of several, the tested form may be a part): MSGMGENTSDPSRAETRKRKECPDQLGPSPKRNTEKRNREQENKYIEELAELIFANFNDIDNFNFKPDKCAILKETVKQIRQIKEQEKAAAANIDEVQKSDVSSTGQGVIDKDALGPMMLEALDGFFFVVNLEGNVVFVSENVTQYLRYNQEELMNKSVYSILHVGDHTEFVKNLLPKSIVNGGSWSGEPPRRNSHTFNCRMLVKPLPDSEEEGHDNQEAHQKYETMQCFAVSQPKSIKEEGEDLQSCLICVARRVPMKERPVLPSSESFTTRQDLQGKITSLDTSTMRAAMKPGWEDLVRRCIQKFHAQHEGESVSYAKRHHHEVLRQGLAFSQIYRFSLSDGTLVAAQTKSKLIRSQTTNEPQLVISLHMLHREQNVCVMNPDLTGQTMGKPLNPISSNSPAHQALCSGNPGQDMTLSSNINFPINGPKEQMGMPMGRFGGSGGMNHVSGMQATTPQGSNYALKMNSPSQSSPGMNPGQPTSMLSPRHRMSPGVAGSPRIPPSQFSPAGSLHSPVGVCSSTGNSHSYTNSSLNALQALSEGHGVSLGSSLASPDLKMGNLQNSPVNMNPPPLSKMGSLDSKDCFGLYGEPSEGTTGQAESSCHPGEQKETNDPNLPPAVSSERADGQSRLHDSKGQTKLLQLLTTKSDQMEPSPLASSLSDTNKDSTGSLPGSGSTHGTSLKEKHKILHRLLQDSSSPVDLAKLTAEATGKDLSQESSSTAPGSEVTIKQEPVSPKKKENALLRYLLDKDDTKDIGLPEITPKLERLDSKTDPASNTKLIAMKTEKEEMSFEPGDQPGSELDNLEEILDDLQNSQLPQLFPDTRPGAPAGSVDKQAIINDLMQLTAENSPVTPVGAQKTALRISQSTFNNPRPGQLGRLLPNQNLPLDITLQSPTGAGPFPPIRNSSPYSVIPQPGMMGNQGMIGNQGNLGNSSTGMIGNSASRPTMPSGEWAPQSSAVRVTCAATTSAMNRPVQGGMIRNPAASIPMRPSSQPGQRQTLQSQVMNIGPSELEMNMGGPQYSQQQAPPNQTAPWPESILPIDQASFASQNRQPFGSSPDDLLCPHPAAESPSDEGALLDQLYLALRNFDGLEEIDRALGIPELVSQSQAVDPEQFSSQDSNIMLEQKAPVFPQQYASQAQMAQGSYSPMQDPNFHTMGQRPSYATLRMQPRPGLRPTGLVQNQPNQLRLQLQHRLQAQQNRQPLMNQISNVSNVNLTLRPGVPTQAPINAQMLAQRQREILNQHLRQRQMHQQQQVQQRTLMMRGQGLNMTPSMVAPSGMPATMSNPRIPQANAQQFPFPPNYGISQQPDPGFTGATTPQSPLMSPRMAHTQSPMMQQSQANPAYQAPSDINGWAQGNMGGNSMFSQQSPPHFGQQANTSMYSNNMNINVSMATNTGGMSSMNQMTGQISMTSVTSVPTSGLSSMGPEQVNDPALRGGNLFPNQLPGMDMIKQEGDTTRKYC
Chain of co-activator AIB/ACTR (Q9Y6Q9 whole entry, one chain of several): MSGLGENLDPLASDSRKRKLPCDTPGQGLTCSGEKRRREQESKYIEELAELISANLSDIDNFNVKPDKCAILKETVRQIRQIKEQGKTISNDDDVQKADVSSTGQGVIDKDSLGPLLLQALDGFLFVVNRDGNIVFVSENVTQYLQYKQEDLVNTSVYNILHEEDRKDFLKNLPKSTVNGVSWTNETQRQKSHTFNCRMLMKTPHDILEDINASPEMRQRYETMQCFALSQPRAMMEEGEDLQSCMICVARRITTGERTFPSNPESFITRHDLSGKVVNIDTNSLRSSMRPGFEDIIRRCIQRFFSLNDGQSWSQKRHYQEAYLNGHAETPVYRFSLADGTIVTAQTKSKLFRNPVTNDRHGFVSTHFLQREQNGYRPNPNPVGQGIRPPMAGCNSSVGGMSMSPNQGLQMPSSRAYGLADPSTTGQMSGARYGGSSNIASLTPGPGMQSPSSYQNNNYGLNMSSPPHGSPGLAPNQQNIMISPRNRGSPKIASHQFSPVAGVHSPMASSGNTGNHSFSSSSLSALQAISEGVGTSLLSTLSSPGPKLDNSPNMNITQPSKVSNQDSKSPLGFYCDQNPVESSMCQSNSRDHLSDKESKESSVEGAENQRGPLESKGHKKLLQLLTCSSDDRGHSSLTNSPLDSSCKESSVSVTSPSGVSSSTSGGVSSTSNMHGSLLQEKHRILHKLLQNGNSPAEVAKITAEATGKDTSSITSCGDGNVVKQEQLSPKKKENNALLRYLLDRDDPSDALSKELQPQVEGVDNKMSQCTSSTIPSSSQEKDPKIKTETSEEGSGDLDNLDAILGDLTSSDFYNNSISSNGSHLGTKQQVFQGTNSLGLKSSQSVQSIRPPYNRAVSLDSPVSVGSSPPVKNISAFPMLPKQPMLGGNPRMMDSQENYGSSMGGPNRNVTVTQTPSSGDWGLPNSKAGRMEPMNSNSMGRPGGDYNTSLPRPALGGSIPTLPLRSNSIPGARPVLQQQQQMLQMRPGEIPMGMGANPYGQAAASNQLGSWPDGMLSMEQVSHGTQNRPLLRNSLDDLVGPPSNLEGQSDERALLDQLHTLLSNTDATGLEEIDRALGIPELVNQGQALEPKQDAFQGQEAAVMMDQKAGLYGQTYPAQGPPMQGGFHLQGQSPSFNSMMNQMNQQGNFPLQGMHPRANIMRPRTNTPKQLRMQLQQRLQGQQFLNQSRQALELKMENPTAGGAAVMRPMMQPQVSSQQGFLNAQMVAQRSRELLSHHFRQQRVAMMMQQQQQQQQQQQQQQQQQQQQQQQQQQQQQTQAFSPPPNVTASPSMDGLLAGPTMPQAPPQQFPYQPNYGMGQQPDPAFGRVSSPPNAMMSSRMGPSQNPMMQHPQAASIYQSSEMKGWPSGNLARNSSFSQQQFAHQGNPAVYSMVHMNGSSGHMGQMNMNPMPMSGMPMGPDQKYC

SLIM3: LIM-domain protein of 279 amino acids, co-activator for nuclear receptors AR and ERβ
interaction with co-activator [1]: interacts
bond to SLIM3 [2]: no bond
interaction with co-activator [3]: interacts
interaction with co-activator [4]: interacts
binding to DNA [5]: does not bind
